*1 amine or outer side, *2 acyl side, *3 side chain or, on linkers, in order; H or OH if unused. Primed or numbered codes have the meaning given here. Where no end group is shown, it is not given here. [ ]: non-standard residue; d: D form. Als″ = residue of 5-aminolevulinic acid, O=C(CCC(=O)[*:2])CN[*:1]
T1: EPO receptor (on TF-1 cells) (UniProt P19235 25-508, limits assumed)
T1 sequence (looked up): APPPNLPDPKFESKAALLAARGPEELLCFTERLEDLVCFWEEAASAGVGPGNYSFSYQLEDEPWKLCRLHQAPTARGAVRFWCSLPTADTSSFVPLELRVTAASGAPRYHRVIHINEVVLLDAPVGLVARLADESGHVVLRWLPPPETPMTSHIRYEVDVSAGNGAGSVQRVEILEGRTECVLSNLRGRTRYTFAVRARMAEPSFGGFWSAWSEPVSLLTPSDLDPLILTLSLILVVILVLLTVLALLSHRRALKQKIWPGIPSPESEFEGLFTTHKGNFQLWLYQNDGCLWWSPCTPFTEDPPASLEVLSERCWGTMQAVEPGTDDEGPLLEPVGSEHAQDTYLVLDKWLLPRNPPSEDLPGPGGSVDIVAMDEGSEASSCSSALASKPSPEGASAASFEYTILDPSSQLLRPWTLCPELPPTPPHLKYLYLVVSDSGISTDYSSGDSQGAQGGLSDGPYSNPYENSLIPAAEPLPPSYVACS


Legend:
TF-1 cells = experiment: Proliferation assay with TF-1 cells by MTT (monomers); type: cell-based; details: MTT-assay data, dose-response calculated with GraphPad
Protocol: Proliferation assay with TF-1 cells by MTT
TF-1 Cells in logarithmic growth phase (˜2.10^5-1.10^6 cells/ml; RPMI medium; 20% fetal calf serum; supplemented with Penicillin, streptomycin, L-Glutamine; 0.5 ng/ml Interleukin 3) are washed (centrifuge 5 min. 1500 rpm and resuspend in RPMI complete without IL3 at 500.000 cells/ml) and precultured before start of the assay for 24 h without IL-3. At the next day the cells are seeded in 24- or 96-well plates usually using at least 6 concentrations and 4 wells per concentration containing at least 10.000 cells/well per agent to be tested. Each experiment includes controls comprising recombinant EPO as a positive control agent and wells without addition of cytokine as negative control agent. Peptides and EPO-controls are prediluted in medium to the desired concentrations and added to the cells, starting a culture period of […] under standard culture conditions (37° C., 5% carbon dioxide in the gas phase, atmosphere saturated with water). Concentrations always refer to the final concentration of agent in the well during this 4-day culture period.
At day 4, prior to start of the analysis, a dilution series of a known number of TF-1 cells is prepared in a number of wells (01250015000/10000120000150000 cells/well in 100 μl medium). These wells are treated in the same way as the test wells and later provide a calibration curve from which cell numbers can be determined. Having set up these reference wells, MTS and PMS from the MTT proliferation kit (Promega, CellTiter 96 Aqueous non-radioactive cell proliferation assay) are thawed in a 37° C. waterbath and 100 μl of PMS solution are added to 2 ml of MTS solution. 20 μl of this mixture are added to each well of the assay plates and incubated at 37° C. for 3-4 h. 25 μl of 10% sodium dodecylsulfate in water are added to each well prior to measurement E492 in an ELISA Reader.
Using graphical evaluations as shown in FIGS. 17 and 18 based on calculations of the dose-response relationship using the program GraphPad the following EC50 values were determined on the basis of MTT-assay data: […]

[1] = target: T1, EPO receptor (on TF-1 cells); experiment: cell-based or functional assay

Molecule | EC50, TF-1 cell proliferation (MTT assay) [1] [µM] | also measured
GGTYSCHF-(Als)-LTWVCKKQGG [SEQ ID NO 8] | – | EC50 (TF-1 cells): 5 µM
GGTYSCHF-(Als)-LTWVCKPQGG [SEQ ID NO 7] | – | EC50 (TF-1 cells): 5.26 µM
GGTYSCHFGGLTWVCKPQGG | – | EC50 values (TF-1 cells): no activity
GGTYSCHFAKLTWVCKKQGG | 5.04 | –
GGTYSCHF[Als″]LTWVCKKQGG (cysteine pairing not given here) [SEQ ID NO 8: GGTYSCHF-(Als)-LTWVCKKQGG] | 5 | –
GGTYSCHFGRLTWVCKKQGG [SEQ ID NO 6: GGTYSCHFGRLTWVCKKQGG] | 4.97 | –
GGTYSCHFGKLTWVCKPQGG [SEQ ID NO 4: GGTYSCHFGKLTWVCKPQGG] | 4.66 | –
GGTYSCHF[Als″]LTWVCKPQGG (cysteine pairing not given here) [SEQ ID NO 7: GGTYSCHF-(Als)-LTWVCKPQGG] | 5.26 | –
GGTYSCHFGKLTWVCKKQGG [SEQ ID NO 2: GGTYSCHFGKLTWVCKKQGG] | 3.28 | –
GGTYSCHFGPLTWVCKKQGG | 2.52 | –
GGTYSCHFGRLTWVCKPQGG [SEQ ID NO 5: GGTYSCHFGRLTWVCKPQGG] | 5.16 | –
